The values that follow come from US11622990.

This experiment has as its target Recombinant human glucose-regulated protein GRP78 (human) (UniProt P11021). The experiment in a line: SPR (Biacore T200), recombinant human GRP78 coupled to a CM5 chip, peptide injected at 0.3125-20 µM. Background: In SPR one partner is held on a chip, and binding of the other changes the refractive index at the surface.

Recombinant human glucose-regulated protein GRP78 (human), sequence (P11021 19-654 limits assumed): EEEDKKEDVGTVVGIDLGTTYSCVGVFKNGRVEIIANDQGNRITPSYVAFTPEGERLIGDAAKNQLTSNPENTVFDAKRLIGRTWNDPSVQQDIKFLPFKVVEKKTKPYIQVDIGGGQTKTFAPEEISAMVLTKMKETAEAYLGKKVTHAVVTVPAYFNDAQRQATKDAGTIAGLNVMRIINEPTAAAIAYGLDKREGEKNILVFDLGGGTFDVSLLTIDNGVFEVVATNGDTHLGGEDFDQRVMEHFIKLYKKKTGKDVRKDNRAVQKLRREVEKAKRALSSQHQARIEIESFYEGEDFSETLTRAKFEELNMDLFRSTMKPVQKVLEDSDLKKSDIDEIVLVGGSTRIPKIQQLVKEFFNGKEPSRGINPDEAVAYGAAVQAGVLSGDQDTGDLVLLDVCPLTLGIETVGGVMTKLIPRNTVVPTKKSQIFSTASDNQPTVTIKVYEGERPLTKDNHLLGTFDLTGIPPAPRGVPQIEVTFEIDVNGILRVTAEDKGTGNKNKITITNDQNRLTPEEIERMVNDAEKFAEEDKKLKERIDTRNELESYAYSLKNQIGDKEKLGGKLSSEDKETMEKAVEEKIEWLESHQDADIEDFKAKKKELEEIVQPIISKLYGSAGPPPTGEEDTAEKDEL

For the molecule SNTRVAP (all seven residues are D-configuration amino acids (^DS^DN^DT^DR^DV^DA^DP)) [SVAP (D-configuration peptide DS-DN-DT-DR-DV-DA-DP)], the equilibrium dissociation constant (Kd) (commonly the concentration at which binding is half-saturated) is 5.22 µM and the koff (usually the rate constant with which the complex falls apart) was determined as 0.0283 s⁻¹.
